Here are results for 1 molecule from patent EP0797662B1 (NEW YORK UNIVERSITY, dated 1995).

This assay deals with T1, SHC (54 kDa band, in lysates of NIH 3T3 cells expressing the EGFR/HER2 chimera) (mouse, UniProt P98083-2 1-469, limits assumed, tyrosine phosphorylated after EGF stimulation).
T1 sequence (looked up): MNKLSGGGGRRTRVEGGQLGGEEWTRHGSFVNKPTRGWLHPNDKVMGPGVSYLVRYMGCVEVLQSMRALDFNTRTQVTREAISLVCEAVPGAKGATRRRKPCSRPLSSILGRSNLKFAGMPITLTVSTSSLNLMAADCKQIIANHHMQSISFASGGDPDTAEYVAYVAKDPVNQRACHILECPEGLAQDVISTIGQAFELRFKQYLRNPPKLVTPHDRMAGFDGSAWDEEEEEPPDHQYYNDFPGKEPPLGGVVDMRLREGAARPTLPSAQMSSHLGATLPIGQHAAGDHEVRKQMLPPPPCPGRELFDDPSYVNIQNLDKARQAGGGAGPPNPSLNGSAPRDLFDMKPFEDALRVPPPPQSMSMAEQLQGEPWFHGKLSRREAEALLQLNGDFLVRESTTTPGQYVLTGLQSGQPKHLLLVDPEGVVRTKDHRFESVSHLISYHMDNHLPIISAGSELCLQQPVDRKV
As to the kind of experiment: blot of lysate of NIH 3T3 cells with the chimera probed with 32P-labelled GST-GRB-7 SH2.

B1: GST fusion protein of the GRB-7 SH2 domain (amino acids 419-535) in pGSTag (other, mouse, UniProt Q03160 419-535, looked up)
chain: CSGSSLSAAIHRTQPWFHGRISREESQRLIGQQGLVDGVFLVRESQRNPQGFVLSLCHLQKVKHYLILPSEDEGCLYFSMDEGQTRFTDLLQLVEFHQLNRGILPCLLRHCCARVAL
modifications: 32P-phosphate at the protein kinase A site of the vector when used as the probe
notes: range 419-535; also called GST-GRB-7-SH2; [32P]GRB-7 SH2 domain; not shown: glutathione S-transferase of the pGSTag vector; protein kinase A phosphorylation site and linker of pGSTag
For B1, the binding result is given as “binds”.
